According to paper PMC9837058, “Oncogenic mutations of PIK3CA lead to increased membrane recruitment driven by reorientation of the ABD, p85 and C-terminus” (Nature Communications, 2023):
[ ]: non-standard residue; d: D form. pY = N[C@@H](Cc1ccc(OP(=O)(O)O)cc1)C(=O)O

Tests used:
Experiment in all cases: HDX-MS; purified p110α/p85α complex (9 pmol) incubated with pY peptide (1 µl of 50 µM) or buffer for 15 min on ice; exchange 3 s on ice and 3, 30, 300, 3000 s at 20 °C; 20 mM HEPES pH 7.5, 100 mM NaCl
Conditions in all cases: both partners purified
[1] = biological target: T1, p110α-p85α complex (wild type, full length) (human, UniProt P42336 1-1068; P27986 1-724)
T1 construct: p85α, human, residues 1-724; Heterodimer of m1 and m2; also called WT p110α/p85α; full-length p110α-p85α; source: Sf9 (baculovirus), co-expressed, purified (Ni-NTA, Strep column, Q column, gel filtration); not shown: His10, N-terminal, cleaved; 2x Strep, N-terminal, cleaved
T1 sequence (P42336 whole entry, chain 1 of 2, the tested form may be a part): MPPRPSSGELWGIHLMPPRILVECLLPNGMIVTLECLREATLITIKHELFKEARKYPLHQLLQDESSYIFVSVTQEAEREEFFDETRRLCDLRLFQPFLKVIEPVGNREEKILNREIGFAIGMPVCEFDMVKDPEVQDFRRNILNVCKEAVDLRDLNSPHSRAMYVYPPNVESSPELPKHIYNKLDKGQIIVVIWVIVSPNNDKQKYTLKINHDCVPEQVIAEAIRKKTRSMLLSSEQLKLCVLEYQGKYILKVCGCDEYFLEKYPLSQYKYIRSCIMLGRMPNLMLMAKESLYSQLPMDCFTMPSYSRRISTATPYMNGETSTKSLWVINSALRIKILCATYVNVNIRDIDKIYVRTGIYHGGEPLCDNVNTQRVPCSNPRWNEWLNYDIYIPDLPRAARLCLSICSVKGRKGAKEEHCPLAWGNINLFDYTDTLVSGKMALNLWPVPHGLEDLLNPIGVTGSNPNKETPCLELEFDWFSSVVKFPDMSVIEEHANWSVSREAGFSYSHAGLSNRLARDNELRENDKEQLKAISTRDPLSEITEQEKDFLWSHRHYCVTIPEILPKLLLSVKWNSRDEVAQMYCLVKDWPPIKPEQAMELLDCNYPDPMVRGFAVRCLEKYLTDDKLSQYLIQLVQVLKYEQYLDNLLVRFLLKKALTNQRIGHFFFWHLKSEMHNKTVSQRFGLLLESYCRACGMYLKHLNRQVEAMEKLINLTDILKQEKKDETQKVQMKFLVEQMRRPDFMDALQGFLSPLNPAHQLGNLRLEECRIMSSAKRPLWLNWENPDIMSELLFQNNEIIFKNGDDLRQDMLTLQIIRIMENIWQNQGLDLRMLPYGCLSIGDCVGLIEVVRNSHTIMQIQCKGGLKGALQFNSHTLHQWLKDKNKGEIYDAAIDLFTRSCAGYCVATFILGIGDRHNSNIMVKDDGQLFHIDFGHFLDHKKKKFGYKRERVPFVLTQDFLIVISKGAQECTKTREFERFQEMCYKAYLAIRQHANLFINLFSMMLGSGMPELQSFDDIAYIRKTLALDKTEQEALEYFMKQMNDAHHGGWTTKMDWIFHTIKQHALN
T1 sequence (P27986 whole entry, chain 2 of 2, the tested form may be a part): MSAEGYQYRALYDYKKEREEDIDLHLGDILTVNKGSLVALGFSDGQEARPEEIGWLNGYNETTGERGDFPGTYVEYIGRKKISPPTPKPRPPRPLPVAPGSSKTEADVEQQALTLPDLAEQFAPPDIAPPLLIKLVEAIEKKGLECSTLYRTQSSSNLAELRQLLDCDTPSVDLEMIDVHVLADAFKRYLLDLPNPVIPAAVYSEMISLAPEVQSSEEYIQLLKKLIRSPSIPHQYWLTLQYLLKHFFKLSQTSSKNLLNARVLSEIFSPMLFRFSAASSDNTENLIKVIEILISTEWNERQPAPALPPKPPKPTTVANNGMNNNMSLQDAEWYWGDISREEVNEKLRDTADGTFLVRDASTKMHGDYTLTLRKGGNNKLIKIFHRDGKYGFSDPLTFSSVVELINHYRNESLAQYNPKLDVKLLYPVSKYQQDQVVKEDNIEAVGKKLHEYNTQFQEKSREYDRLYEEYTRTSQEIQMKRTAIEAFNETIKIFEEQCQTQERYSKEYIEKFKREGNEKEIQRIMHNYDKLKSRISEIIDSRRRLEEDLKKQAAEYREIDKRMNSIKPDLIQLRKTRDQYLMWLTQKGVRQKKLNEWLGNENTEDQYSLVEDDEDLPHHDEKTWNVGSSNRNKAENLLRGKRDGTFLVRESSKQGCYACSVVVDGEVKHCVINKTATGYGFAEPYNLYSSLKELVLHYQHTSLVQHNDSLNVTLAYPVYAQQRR

[2] = biological target: T2, p110α ΔCter (1–1048)-p85α complex (human, UniProt P42336 1-1048; P27986 1-724)
T2 construct: p85α, human, residues 1-724; Heterodimer of m7 and m2; source: Sf9 (baculovirus), co-expressed, purified (Ni-NTA, Strep column, Q column, gel filtration); not shown: His10, N-terminal, cleaved; 2x Strep, N-terminal, cleaved
T2 sequence (P42336 1-1048, stated change not applied, chain 1 of 2): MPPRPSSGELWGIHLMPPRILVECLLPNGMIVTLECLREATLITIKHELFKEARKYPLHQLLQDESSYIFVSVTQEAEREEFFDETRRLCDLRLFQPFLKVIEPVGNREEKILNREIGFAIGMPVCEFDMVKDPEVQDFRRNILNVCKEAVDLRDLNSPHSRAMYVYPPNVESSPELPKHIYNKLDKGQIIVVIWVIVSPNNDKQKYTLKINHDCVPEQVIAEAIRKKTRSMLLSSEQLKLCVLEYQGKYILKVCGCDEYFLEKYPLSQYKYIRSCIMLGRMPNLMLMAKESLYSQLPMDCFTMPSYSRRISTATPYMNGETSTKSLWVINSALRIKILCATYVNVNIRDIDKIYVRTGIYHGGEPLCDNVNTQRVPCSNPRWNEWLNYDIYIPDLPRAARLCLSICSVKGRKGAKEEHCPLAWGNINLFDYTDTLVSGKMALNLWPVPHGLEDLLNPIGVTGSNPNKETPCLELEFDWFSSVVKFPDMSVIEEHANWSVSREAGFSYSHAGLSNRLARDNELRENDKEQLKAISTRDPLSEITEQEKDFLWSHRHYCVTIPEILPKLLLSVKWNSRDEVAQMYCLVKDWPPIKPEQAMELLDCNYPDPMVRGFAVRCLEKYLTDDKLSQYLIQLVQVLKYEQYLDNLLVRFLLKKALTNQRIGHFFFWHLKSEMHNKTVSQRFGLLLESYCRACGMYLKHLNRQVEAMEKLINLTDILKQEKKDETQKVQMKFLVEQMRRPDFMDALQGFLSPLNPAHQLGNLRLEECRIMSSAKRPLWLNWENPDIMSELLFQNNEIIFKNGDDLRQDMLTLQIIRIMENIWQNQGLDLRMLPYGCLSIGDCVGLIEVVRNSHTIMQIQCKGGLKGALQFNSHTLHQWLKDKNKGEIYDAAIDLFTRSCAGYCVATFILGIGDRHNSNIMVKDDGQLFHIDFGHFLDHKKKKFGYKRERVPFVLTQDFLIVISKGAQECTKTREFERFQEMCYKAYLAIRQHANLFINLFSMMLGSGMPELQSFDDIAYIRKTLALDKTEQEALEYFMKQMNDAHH
T2 sequence (P27986 whole entry, stated change not applied, chain 2 of 2, the tested form may be a part): as the sequence (P27986 whole entry, chain 2 of 2, the tested form may be a part) above

[3] = biological target: T3, p110α H1047R-p85α complex (human, UniProt P42336 1-1068; P27986 1-724, H1047R)
T3 construct: p110α, human, full length with the oncogenic mutation H1047R; p85α, human, residues 1-724; Heterodimer of m4 and m2; also called p110α/p85α H1047R; source: Sf9 (baculovirus), co-expressed, purified (Ni-NTA, Strep column, Q column, gel filtration); not shown: His10, N-terminal, cleaved; 2x Strep, N-terminal, cleaved
T3 sequence (P42336 whole entry H1047R, chain 1 of 2, the tested form may be a part): as the sequence (P42336 whole entry, chain 1 of 2, the tested form may be a part) above, with H1047R counted along it
T3 sequence (P27986 whole entry, chain 2 of 2, the tested form may be a part): as the sequence (P27986 whole entry, chain 2 of 2, the tested form may be a part) above

Measured: binding result

B1: PDGFR bis-phosphorylated pY peptide (PDGFR residues 735–767, pY740, pY751) (peptide)
peptide: H-ESDGG[pY]MDMSKDESID[pY]VPMLDMKGDIKYADIE-OH
SMILES: CC[C@H](C)[C@H](NC(=O)[C@H](CC(=O)O)NC(=O)[C@H](C)NC(=O)[C@H](Cc1ccc(O)cc1)NC(=O)[C@H](CCCCN)NC(=O)[C@@H](NC(=O)[C@H](CC(=O)O)NC(=O)CNC(=O)[C@H](CCCCN)NC(=O)[C@H](CCSC)NC(=O)[C@H](CC(=O)O)NC(=O)[C@H](CC(C)C)NC(=O)[C@H](CCSC)NC(=O)[C@@H]1CCCN1C(=O)[C@@H](NC(=O)[C@H](Cc1ccc(OP(=O)(O)O)cc1)NC(=O)[C@H](CC(=O)O)NC(=O)[C@@H](NC(=O)[C@H](CO)NC(=O)[C@H](CCC(=O)O)NC(=O)[C@H](CC(=O)O)NC(=O)[C@H](CCCCN)NC(=O)[C@H](CO)NC(=O)[C@H](CCSC)NC(=O)[C@H](CC(=O)O)NC(=O)[C@H](CCSC)NC(=O)[C@H](Cc1ccc(OP(=O)(O)O)cc1)NC(=O)CNC(=O)CNC(=O)[C@H](CC(=O)O)NC(=O)[C@H](CO)NC(=O)[C@@H](N)CCC(=O)O)[C@@H](C)CC)C(C)C)[C@@H](C)CC)C(=O)N[C@@H](CCC(=O)O)C(=O)O
notes: PDGFR residues 735-767; human has V where this peptide has I at two places; also called phosphopeptide; source: synthetic peptide; bought: New England Peptide
binds: [1] | [2] | [3]
